Values quoted from earlier work as cited in publication PMC4918944.

Biological target: SecY (Bacillus subtilis) (UniProt P16336)
Sequence of UniProt P16336 (P16336 whole entry): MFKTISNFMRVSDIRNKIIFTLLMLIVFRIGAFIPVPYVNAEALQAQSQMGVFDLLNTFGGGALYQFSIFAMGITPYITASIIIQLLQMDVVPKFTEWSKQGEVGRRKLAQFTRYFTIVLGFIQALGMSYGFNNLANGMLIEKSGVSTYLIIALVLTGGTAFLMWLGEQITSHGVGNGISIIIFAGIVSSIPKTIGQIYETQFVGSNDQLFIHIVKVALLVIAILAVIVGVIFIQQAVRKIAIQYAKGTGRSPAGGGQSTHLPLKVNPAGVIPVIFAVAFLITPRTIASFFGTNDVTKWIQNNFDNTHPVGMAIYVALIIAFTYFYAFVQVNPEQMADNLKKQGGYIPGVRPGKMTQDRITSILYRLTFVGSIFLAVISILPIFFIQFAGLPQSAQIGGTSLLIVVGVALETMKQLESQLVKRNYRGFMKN

Kd: 4 nM
Substance: SecA (from UniProt P28366)
